Data from paper PMC3438448, “Lis1 Acts as a “Clutch” between the ATPase and Microtubule-Binding Domains of the Dynein Motor” (Cell, 2012).

Target: the molecule itself
Assay: cross-linking; 0.5 μM protein ± 0.05% glutaraldehyde, 5 min, ambient temperature; 30 mM HEPES pH 7.2, 50 mM potassium acetate; SDS-PAGE; control pretreated with 4% LDS

B1: Lis1 (S. cerevisiae Pac1) (natural protein, UniProt P39946 1-494, looked up)
chain: MTNWQQQLPLTDTQKNELDKSVLRYLNWNYKQTVRHEHAQDYESVRHAIVTLSGFLLQESVDRQEFISNNDTSNESMVDIDELLLPKKWNSIVRLQKKIIELEQNTETLVSQIKDLNTQVSELAQFKPTTSNGTSAHNVLKWIPRNLPSCLINVESSVTSVKLHPNLPIVFVATDHGKLYAFDLFNYTIPLASLQSHTKAITSMDVLFTNYTNSSKKNYLVIVTASKDLQIHVFKWVSEECKFQQIRSLLGHEHIVSAVKIWQKNNDVHIASCSRDQTVKIWDFHNGWSLKTFQPHSQWVRSIDVLGDYIISGSHDTTLRLTHWPSGNGLSVGTGHEFPIEKVKFIHFIEDSPEIRFRTPSTDRYKNWGMQYCVSASRDRTIKIWEIPLPTLMAHRAPIPNPTDSNFRCVLTLKGHLSWVRDISIRGQYLFSCADDKSVRCWDLNTGQCLHVWEKLHTGFVNCLDLDVDFDSNVTPRQMMVTGGLDCKSNVFMR
notes: Lis1 ortholog Pac1 (PAC1), S. cerevisiae; also called dimeric Lis1; intact Lis1; source: S. cerevisiae, expressed from the genomic locus, purified (Ni-NTA, IgG sepharose, TEV cleavage)
In the case of B1, the “stoichiometry N” value is reported as 2.
